Patent publication US20200299400A1 (published 2020)

T1: human GITR on cells (human, UniProt Q9Y5U5 26-241)
T1 chain: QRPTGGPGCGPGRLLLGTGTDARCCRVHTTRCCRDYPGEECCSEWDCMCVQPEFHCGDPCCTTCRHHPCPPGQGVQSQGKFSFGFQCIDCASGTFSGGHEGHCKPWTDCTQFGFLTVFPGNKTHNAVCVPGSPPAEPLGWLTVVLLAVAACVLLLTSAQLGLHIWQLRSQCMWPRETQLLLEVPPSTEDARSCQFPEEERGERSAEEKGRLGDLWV

B1: anti-GITR-IgG2 (antibody)
heavy: QVQLVESGGGVVQPGRSLRLSCAASGFTFSSYGMHWVRQAPGKGLEWVAVIWYEGSNKYYADSVKGRFTISRDNSKNTLYLQMNSLRAEDTAVYYCARGGSMVRGDYYYGMDVWGQGTTVTVSSASTKGPSVFPLAPCSRSTSESTAALGCLVKDYFPEPVTVSWNSGALTSGVHTFPAVLQSSGLYSLSSVVTVPSSNFGTQTYTCNVDHKPSNTKVDKTVERKCCVECPPCPAPPVAGPSVFLFPPKPKDTLMISRTPEVTCVVVDVSHEDPEVQFNWYVDGVEVHNAKTKPREEQFNSTFRVVSVLTVVHQDWLNGKEYKCKVSNKGLPAPIEKTISKTKGQPREPQVYTLPPSREEMTKNQVSLTCLVKGFYPSDIAVEWESNGQPENNYKTTPPMLDSDGSFFLYSKLTVDKSRWQQGNVFSCSVMHEALHNHYTQKSLSLSPGK
light: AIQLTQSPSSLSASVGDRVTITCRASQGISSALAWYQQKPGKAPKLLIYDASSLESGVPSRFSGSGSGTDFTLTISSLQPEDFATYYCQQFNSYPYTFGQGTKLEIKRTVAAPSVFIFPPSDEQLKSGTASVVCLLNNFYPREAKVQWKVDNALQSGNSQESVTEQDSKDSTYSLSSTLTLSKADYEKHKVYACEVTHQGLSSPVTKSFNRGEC
B2: anti-GITR-IgG2-IgG1.1 (antibody)
heavy: QVQLVESGGGVVQPGRSLRLSCAASGFTFSSYGMHWVRQAPGKGLEWVAVIWYEGSNKYYADSVKGRFTISRDNSKNTLYLQMNSLRAEDTAVYYCARGGSMVRGDYYYGMDVWGQGTTVTVSSASTKGPSVFPLAPCSRSTSESTAALGCLVKDYFPEPVTVSWNSGALTSGVHTFPAVLQSSGLYSLSSVVTVPSSNFGTQTYTCNVDHKPSNTKVDKTVERKCCVECPPCPAPPVAGPSVFLFPPKPKDTLMISRTPEVTCVVVDVSHEDPEVKFNWYVDGVEVHNAKTKPREEQYNSTYRVVSVLTVLHQDWLNGKEYKCKVSNKALPSSIEKTISKAKGQPREPQVYTLPPSREEMTKNQVSLTCLVKGFYPSDIAVEWESNGQPENNYKTTPPVLDSDGSFFLYSKLTVDKSRWQQGNVFSCSVMHEALHNHYTQKSLSLSPG
light: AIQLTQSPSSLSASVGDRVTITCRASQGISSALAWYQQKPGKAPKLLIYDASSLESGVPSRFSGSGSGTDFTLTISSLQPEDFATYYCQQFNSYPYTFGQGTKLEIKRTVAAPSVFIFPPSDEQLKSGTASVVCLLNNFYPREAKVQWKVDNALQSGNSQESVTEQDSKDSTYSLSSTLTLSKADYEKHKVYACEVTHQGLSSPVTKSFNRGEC

Target: T1, human GITR on cells
Experiment: FACS binding to activated human CD4 T cells

Binder | EC50 [nM]
B1 | 0.277
B2 | 0.163
